# According to the supplement of paper PMC9170038:
# Test system: MS2 coat protein
# Assay: apparent KD of MS2 coat protein; designed switch direction (-1 OFF switch, 1 ON switch): -1; higher = weaker reporter binding
# Outline: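 Stalled E. coli RNA polymerase transcribed designed RNA switches on Illumina chips, which were then titrated with SNAP-549-labelled MS2 coat protein, doubling from 0.7 or 1.5 nM to 3 µM. Steps lasted from 0.8–1.5 h at the lowest concentration to 10–20 min at the highest. The apparent KD is each design's median over clusters of curve-fitted normalised fluorescence.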
# [1] = Eterna round: R95, input ligand: FMN 200 uM
# [2] = Eterna round: R95, input ligand: microRNA oligo, concentration not stated
# [3] = Eterna round: R95, input ligand: none
Sequence,apparent KD of MS2 coat protein [1] [nM],apparent KD of MS2 coat protein [2] [nM],apparent KD of MS2 coat protein [3] [nM],apparent KD of MS2 coat protein (input ligand: FMN 200 uM) [nM],apparent KD of MS2 coat protein (input ligand: none) [nM],"apparent KD of MS2 coat protein (input ligand: microRNA oligo, concentration not stated) [nM]"
AAAAAACAAGGAUAUACUAAGGAUGAUUAUCUUAAUUUUUGACAUGAGGAUCACCCAUGUAGAAGGUGUUAAAA [JR_Exclusion2_Sub007] (puzzle: Exclusion 2),98.9,47.5,41.2,,,
"AAAAAGGUAGGAUAUCCACUUUAAAACAUGAGGAUCACCCAUGUAAAACCACAUGAAAAAGGAGAAGGACCAAAAA [AK-MS2ROC-r4-exclusion5-2] (Eterna round: R97, puzzle: Exclusion 5)",,,,24.7,26,
"AAAACGUCAGGAUAUCCAAUAUAUGACAUGAGGAUCACCCAUGUUUCCACUCGUACCUCCGGAGAAGGGACUUAUA [Ex5 #83] (Eterna round: R97, puzzle: Exclusion 5)",,,,43.9,46.2,
"AAAAGAUAAGGAUAUUGAAGGUUCGACAUGAGGAUCACCCAUGUUAUGUUGGAAAAGGGACAAGAAGGUAUGAAAG [salish99_ex5_r4_203] (Eterna round: R97, puzzle: Exclusion 5)",,,,31.5,41.8,
AAAAGGCUAGGAUAUACCAGUGGGUGUAAGAACUCAAAUUUACAUGAGGAUCACCCAUGUAGAAGGAGUAAAAU [Dilaed] (puzzle: Exclusion 2),,19.5,,,,
AAAAGGCUAGGAUAUCGCGGUAACAACAUGAGGAUCACCCAUGUGAAGGUGUCUUCUGCCCGAGAAGGAGCAGAGU [Tientixe] (puzzle: Exclusion 5),43.2,25.6,29.9,,,
AAAAGGUCAGGAUAUACAAGAAAAGAAAAGAAAAGAAAAGAGUAGAAGGGACAUGAGGAUCACCCAUGUAAAAG [Default title] (puzzle: Exclusion 4),30.6,45.8,35.1,,,
AAAAGGUGAGGAUAUGAGGCGCCGGGCCGGUUGGUGCGGAUUCAGAAGGCACAUGAGGAUCACCCAUGUAAUAA [Excls4-II] (puzzle: Exclusion 4),52.2,38.7,50.4,,,
AAACACUUAGGAUAUACAUGAGGAUCACCCAUGUCAGACAACGACUACACAAAGUCAUGUAGAAGGAAGUCAAG [Islarele] (puzzle: Exclusion 3),24.3,24.1,26,,,
AAACCCUGAGGAUAUACAUAACAACAAAUCCUCACGUGCCAACAUGAGGAUCACCCAUGUAGAAGGCAGGCCCA [Bigegedi] (puzzle: Exclusion 2),48.4,15.8,15.3,,,
"AAACGCCGAGGAUAUACCCAACCAGUCCUCUAAAGAAGAAAACAUGAGGAUCACCCAUGUAGAAGGCGGUGCAA [Anorti] (Eterna round: R97, puzzle: Exclusion 2)",,,,51.8,28.1,
"AAACGGCGGAUCGUGGCUUUUUGCUCGUCUUGUGCUUCAACAUGAGGAUCACCCAUGUAGUGGUGAUCCGUUGUAAA [Grok-var2-17 mod JAL] (puzzle: Sensor v3, turn-off variant 2)",25.8,26.7,42.1,,,
"AAACGGUAAGGAUAUCGGGCAACGGACAUGAGGAUCACCCAUGUGAACCUGCGUAUCCUCCGAGAAGGUACAAAAG [Diinbibe] (Eterna round: R97, puzzle: Exclusion 5)",,,,20,10.9,
"AAAGCACAUGAGGAUCACCCAUGUGAGGAUAUACAGAAAAUCUCGUUUACGAGGACUCGUAGAAGGCGCAGUGC [Eternabot (L2) Solution 19] (Eterna round: R97, puzzle: Exclusion 1)",,,,20.9,21.3,
"AAAUAACAAGCAAGAUCCUACAUGAGGAUCACCCAUGUGCUCGUCUUAUAAAGUACUAUCACGAAAGUGAUAGUACA [Sensor 3, v1 - 11] (puzzle: Sensor v3, turn-off variant 1)",675,392,546,,,
"AAAUAAUAGAUAAAAUAAUACAUGAGGAUCACCCAUGUGCGAUGUUGAGGGUGAUACAGGCUUUUUGCUCGUCUUAU (puzzle: Sensor v3, turn-off variant 1)",177,20.5,67.9,,,
"AAAUACAAGCAAAGAUCCUACAUGAGGAUCACCCAUGUGCUCGUCUUGUAAAGUACUAUCACGAAAGUGAUAGUACA [Sensor 3, v1 - 16] (puzzle: Sensor v3, turn-off variant 1)",51.9,27.5,70.2,,,
"AAAUACAGGUAAAGAUUCUACAUGAGGAUCACCCAUGUGCUCGUCUUAUAAAGUACUAUCACGAAAGUGAUAGUACA [Sensor 3, v1 - 40] (puzzle: Sensor v3, turn-off variant 1)",25.9,169,21.6,,,
"AAAUACCGGUGAGGAUAUUUAUAAUAGAGCUUUAUGAUAUACAUGAGGAUCACCCAUGUUACUUUAAAGAAGGCAUCGGAAUAA [Mat - Exclusion NG 2 - Mod of JL - D93] (Eterna round: R96, puzzle: Exclusion NG 2)",,,,15.4,18.9,13.9
"AAAUAGCUAGAGGAUAUUGGAUAGGAUUUAGUACGAGAAGGUUAGACAUGAGGAUCACCCAUGUUGUGUUGGGA [EX6 #16] (Eterna round: R97, puzzle: Exclusion 6)",,,,49.2,52.9,
AAAUCCGCUGAGGAUAUGAUGACUGAGAGGUCAUCAGAAGGCGGUACAUGAGGAUCACCCAUGUCUAUGGGCAA [Ex-6 Malc#29] (puzzle: Exclusion 6),313,317,636,,,
AAAUCCGCUGAGGAUAUUAUGAGUGAGAGCUCAUGAGAAGGCGGUACAUGAGGAUCACCCAUGUCUAUGGGCAA [Ex-6 Malc#26] (puzzle: Exclusion 6),,329,,,,
"AAAUCUCACGUGAGGAUAUCCUGGGCAACGUCCACGGAGAAGGCACAUGAGGAUCACCCAUGUGUUCGCAAUAC [Brourd's mod of Exclusion 4 (MOD2 of Nando's BmEX4 C.1)] (Eterna round: R97, puzzle: Brourd's mod of Exclusion 4)",,,,22.3,17.9,
AAAUGAUGUCAGGAUAUUGACGUUAAAAGAACGCAAGAAGGGACAACAUGAGGAUCACCCAUGUGGUCCUAUAA [Bira] (puzzle: Exclusion 6),,13,,,,
AAAUUAAGUGUGAGGAUAUGCUGGUCCUUGGAUCAGCAGAAGGCACAUGAGGAUCACCCAUGUAAUAUAUUUAA [Mat - Exclusion 4 - JL Mod - D49] (puzzle: Brourd's mod of Exclusion 4),439,74.2,144,,,
AAAUUCUGAGGAUAUCGAUGUUUGUACAUGAGGAUCACCCAUGUCCUUUUUAUUUAAUCCCGAGAAGGCAGUGUAU [JR_E5_Sub098] (puzzle: Exclusion 5),,32.6,,,,
